Test results reported in US20250009896.

Tested on: T1, Free DX600 peptide
T1 sequence: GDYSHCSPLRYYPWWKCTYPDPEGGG

## Recombinant human angiotensin-converting enzyme 2 (ACE2) protein, carrier-free (R&D Systems)
  initial velocity of ACE2 cleavage of fluorogenic substrate: there is no appreciable difference in the initial velocity of ACE2 cleavage in the presence of Ligand in comparison to the free DX600 peptide alone
